pKd: −log10 of the molar value.
Columns and labels:
[1] = target: pHuD peptide presented by HLA-A2 on T2 cells (human); assay: cell-based or functional assay
[2] = target: HLA/pHuD complex (HLA-A0201 with the modified peptide pHuD), HLA/peptide complex used in surface plasmon resonance (human); assay: surface plasmon resonance, soluble TCR and HLA/peptide complex
[3] = target: HLA/pTax complex (HLA-A0201 with the pTax peptide of HTLV-1 Tax), HLA/peptide complex used in surface plasmon resonance (human); assay: as above

Substance	kinetic of CD107 upregulation [1] [h]	peptide needed to trigger a CD107 response [1] [fold]	pKd [2]	pKd [3]	half-life t1/2 [3] [s]
Tax-TCR expressed on transduced Jurkat cells or primary human T cells (pMP71 retroviral construct)	4	10	–	–	–
wild type Tax-TCR, soluble TCR molecule (HLA-A0201-restricted TCR specific for the pTax peptide of HTLV-1 Tax)	–	–	3.91	5.74	9.3

— patent US20170327596A1
